# Results from the nanobody polyreactivity screen of Harvey et al. (2022).
# Experiment: yeast display, Sf9 membrane polyspecificity reagent, FACS + sequencing; frameworks hold sequencing errors
# Method in brief: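 Polyreactivity labels are assigned by the sorting gate from which each nanobody was recovered. The gates were low and high (top ~1%), set on anti-HA fluorescence for expression and streptavidin fluorescence for reagent binding. Before sorting, galactose-induced (36–48 hours) yeast display cells were stained for 1 hour at 4 °C with 10% biotinylated, detergent-solubilized Sf9 membrane reagent.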
row,Sequence,polyreactivity (PSR sort gate)
1,QLHLVESGGGLVQAGGSLRLSCAASGRIFFYAMGWYRQAPGKERDLVASITTSGTSTYYADSVKGRFTISRDNSKNTVYLEMNSLKPEDTSVYYCNATSNSIRWYDFYYWGQGTQVTVSS,low polyreactivity
2,QVQLEESGGGLVQAGGSHRLSCAASGSTIYAYTMGWYRQAPGKERELVARISGRGGSTYYADSVKGRFTISRDNAKNTVYLQMNSLKQEDTAVYYCAARRKFDYWGQGTQVTVSS,high polyreactivity
3,QVQLVESGGGLVKAGGSLRLSCAASGSIFQSNAMGWYRQAPGKERELVAAIRTSSGGGTYADSVKGRFTISRDNAKNTVYLQINSLKPEDTAVYDCNARKNNGGKWGYDYWGQGTQVTVSS,high polyreactivity
4,QVQLVESGGGLVQAGGSLRLSCAASGSTFYFNAMGWYRQAPGKERELVAGIRYSGSSTYYADSVKGRFTISRDNAKNTVYLQMNSLKPEYTAVYYCAAERWWYTVRGYGYWGQGTQVTVSS,high polyreactivity
5,QVQLVESGGGLVQAGGSLRLSCAASGSTFYLYAMGWYRQAPGKERELVAAITRGGTTNYADSVKGRFTISRDNAKNTVYLQMNSLKPEDTAVYYCAKEVTTLLSLYEIVDRDYWGQGTQVTVSS,low polyreactivity
6,QVQLVESGGGLVQAGGSLRLSCAASGSIFVVYAMGWYRQAPGKEREMVAVISNGGTTNYADSVKGRFTISRDNAKNTVYLQMNSLKPEDTAVYYCAKASSRRYWTIRDGDYWGQGTQVTVSS,low polyreactivity
7,QVQLVESGGGLVQAGGSLRLSCAASGIIFWYNAMGWYRQAPGKERELVASISTGGRTYYADSVKGRFTISRDNAKNTVYLQMNSLKPEDTAVYYCAAASRVGFLYCYWGQGTQVTVSS,low polyreactivity
8,QVQLVESGGGLVQAGGSLRLSCAASGFTFEYYAMGWYRQAPGKEREFVAAISARGDSTYYADSVKGRFTISRDNAKNTVYLQMNSLKPEDSAVYYCAKKTSPRRYYYWGQGTQVTVSS,high polyreactivity
9,QVQLVESGGRLVQAGGSLRLSCAASGRILRQYTMGWYRQAPGKERELVAGITGSDSSTYYADSVKGRFTISRDNAKNTVYFQMNSLKPEDRAVYYCGTYRWGTLASIYYYWGQGPQVTVSS,low polyreactivity
10,QVQLVESGGGLVKAGGSLSLICAASGFTFGVYAMGRYRQAPGKERELVAAIRRTGGSTYYADSVKGRFTISRDNAKNTVYLQMNSLKPEDTAVYYCAAHAISYQSRYRYRYGSVDYWGQGTQVTVSS,high polyreactivity
11,QVQLVESGGGLVQAGGSLRLSCAASGFTFRRYAMGWYRQAPGKERELVAAISRRGVTTYYADSVKGRFTISRDNAKNTVYLQMISLKPEDTAVYYCAADHNPSIGDDSWGQGTQVTVSS,high polyreactivity
12,QVHLVESGGALVQAGGSLRLSCAASGSTFGGYAMGWYRPAPWKERELVAAITRSGGTTYYADSVKGRFTISRDNAKNTVYLQMNSLKPEDTAVYYCAAQGRRRPHQDAPYDYWGQGTQVTVSS,high polyreactivity
13,QVHLVESGGGLVQAGGSLRLSCAASGLIFLAYAMGWYRQAPGKERELVAAISTSGSTYYADSVKGRFTISRDNAKNTVYLQMNSLKPEDTAVYYCAAYDRWSVTYYYWGQGTQVTVSS,high polyreactivity
14,QVQLVESGGGLVQAGGSLRLSCAASGRTFGYYAMGWYRPAPGKERELVAAISSGGRTYYADSVKGRFTISRDNAKNTVYLQMNSLKPEDTAVYYCNAASLVAYLARLGRDYWGQGTQVTVSS,low polyreactivity
15,QVQLVDSGGGLVQAGGSLSLSCAASGRIFTHYSMGWYRQATGKERELVAGMSQGGGSTYYADSVKGRFTISRDNAKNTVYLQMNSLKPEDTAVYYCAKTYDYVDYDYWGQGTQVTVSS,low polyreactivity
16,QVQLVESGGGLVQAGGSLRLSCDASGSTFSYYAMGWYRQAPGKERDLVAAISSSGVRTYYADSVKGRFTISRDNAKNTVYLQMNSQKPEDTAVYYCAAGSRRGWLYRNRLWADYDYWGQGTQVTVSS,high polyreactivity
17,QVQLVESGGGLVQAGGSLRLSCAASGSIFAANAMGWYRQAPGKEREFVASISRSGGSTYYADSVKGRFTISRDNAKNTVYLQMTSLKPEDTAVYYCATRTRIYSARDHYGYWGQGTQVTVSS,low polyreactivity
18,QVQLVESGGGLVQAGGSLRLRCAASGLIFPYYAMGWYRQAPGKERELVAGITSDGSTNYADSVKGRFTLSRDNAKNTVYLQMNSLKPEDTAVYYCNARGVYFWWRLDYWGQGTQVTVSS,low polyreactivity
19,QVQLVESGGGLVQAGGSLRLSCAASGIIFRWYAMGWYRQAPGKERELLAAITSSGGRTYYADSVKGRFTISRDNAKNTVYFQMNSLKPEDSAVYYCAASYYIVGWDPYDYWGQGTQVTVSS,high polyreactivity
20,QVQLVESGGGLDQAGGSLRLSCAASGSIFYVNAMGWYRQAPGKERELVAAITSGGSTSYADSVKGRFTISRDNAKNTVYLQMNSLKPEDTAVYYCAADWDYPEQYRVNYEYGYWGLGTQVTVSS,low polyreactivity
21,QVQLVESGGGLVQAGGSLRLSCAASGRIWVNAMAWYRQAPRKEMEFVAAISTSSASTYYADSVKGRFTISRDNAKNTVYLQMNSLKPVDTAVYYCAARYLGKKFYYWGQGTQVTVSS,high polyreactivity

row,Sequence,polyreactivity (PSR sort gate)
1,QVQLVESGGGLVQAGAILRVSCAASGISLQYAMGCYRQAPGKERELVASISSRGTSTYYADSVKGRFTISRDNAKNTVYLQMNSLKPEDTAVYYCAARVRWWSPGGYWGQGTQVTVSS,high polyreactivity
2,QVQLVESGAGLVQAPGSLRLSCAASGRTFPRNAMGRYRQAPGKERDLVATISLSGGSTYYADSVKGRFTISRDNAKNTVYLQMNSLKPEDSADYYCARTRNPWPTSFDYWGQGTQVTVSS,low polyreactivity
3,QVQLVESGGGLVQAGGSLRLSCAASGFTLSYYAMGWYRQAPGKERELVASISAIGGITYYADSVKGRFTISRDNAKNTVYLQMNSLKPEDTAVYYCARQGRRYRRFDSWGQGTKVTVSS,high polyreactivity
4,QVQLVESGGGLVQAGGSLRLSCAASGRTFDKYAMGWYRQAPGKERELVAAITRSGGSTYYADSVKGRFTISRDNAKNTVYLQMNSLKPEDTAVYYCAKRYWSYRWKYDYWGQGTQVTVSS,high polyreactivity
5,QVQLVESGGGIVQAGGSLRLSCGASGSIFVTYTMGWYRQAPGKERELVAAITSDGRTYYADSVKGRFTISRDNAKNTVYLQMNCLKPEDTAVYYCAADSSGYYWFNYWGQGTQVTVSS,low polyreactivity
6,QVQLVESGGGLLQAGGSLRLSCAASGLTFSKNAMGWYRQATGKERELVATISYSSSRTNYADSVKGRFTISRDNAMNTVYLQMNFLKPEDTAVYYCAARVYKGWPTHYDYWGQGTQVTVSS,high polyreactivity
7,QVQLVESGGGLVQAGGSLRLSCAASGSTSNLYAMGWYIQAPGKERELVAAITSIDGGTYYADSVKGRFTISRDNAKNTVYLQMNSLKAEDTAVYYCNAEDRFFYWGGYDYWGQGTQVTVSS,low polyreactivity
8,QVQLVESGGGLVQAGGSLRLSCAASGRIFKRYAMGWYRQAPGKERELVAAISRGGSTNYADSVKGRFTISRDNAKNTVYLQMNSLKPEDTAVYYCAVQSGYSGSSQPVRYDYWGQGTQVTVSS,high polyreactivity
9,QVQLVESGGGLVQAGGSLRLSCAASGSTFDVYAMGWYRQAPGKERELVAAITQSGGSTYYADSVKGRFTISRDNAKNTVYLQMNSLKTEDTAVYYCAAREWRSFDYWGQGTQVTVSS,low polyreactivity
10,QVHLVESGGALVQAGGSLRLSCAASGLTFVTNSMGWYRQAPGKERELVAAISLGGGSTYYADSVKGRFTISLDNAKNTVYLQMNSLKPEDTAVYYCAAVPGWVRQAVGWVLSLLDYCGQGTQVTVSS,low polyreactivity
11,QVQLVESDGGLVQAGGSLRLSCAASGSTFTWNAMGWYRQAPGKERELVAAISGDGGSTYYADSVKGRFTISRDNAKNTVYLQMNSLKPEDTAVYYCAASSAHIYSYRYNYWGQGTQVTVSS,low polyreactivity
12,QVQLVESGGGLVQAGGSLRLSCAASGLTIWYYSMGLYRQAPGKEREFVAAITSRGGDTNYADSVKGRFTISRDNAKNTVYLQMNSLKPEDTAVYYCAVRPRYYGTYRYYYWGQGTQVTVSS,high polyreactivity
13,QVQLVESRGGLVQAGGSLRLSCAPSGLIFWAYARGWYRQAPGNERELVAAINWRGGSTYYADSVKGRFTISRDNAKNTVYLQMNSLKPEDTAVYYCAADSYYDEYDYWGQGTQVTVSS,low polyreactivity
14,QLQLVESGGGLVQAGGSLRLICAASGLTFVHYTMGWYRQAPGKERELVAAISWNGASTYYADSVKGRFTISRDNAKNTVDIQMNSLKPEDTAVYYCAAGYAQPRYYTDYYWGEGTQVTVSS,high polyreactivity
15,QVQLVESVGGLVQAGGSLRLSCAASARIFRYYAMGWDRQAPGKERELVAAITWNGGSTYYADSVKGRFTISRDNAKNTVYVQLNSLKPEDTAVYYCAAVSYYTHYRLPYDYWGQGTQVTVSS,high polyreactivity
16,QVQLVESGGGLVQAGGSLRLSCAASGRTFSYYTMGWDRQAPGKERELVASITSDSSTNYADSVKGRFTISRDNAKNTVYLQMNSLKPEHTAVYYCAADHWIAPRRDYWGQGTQVTVSS,low polyreactivity
17,QVKLVESGGGLVQAGGSLRLSCAASGIIFYRYAMGWYRQAPGKERELVAAISGRTGRTYYADSVKGRFTISRDNAKNTVYLQMNSLKPEDTAVYYCAADYYHYRYQTRLDYWGQGTQVTVSS,high polyreactivity
18,QVQLVESGGGLVQAGGSLRLSCAASGGIFSYNAMGWYIQAPGKERELVATISYSGGSTFYADSVKGRFTISRHNAKNTVYFQMNSLKPEDTAVYYCARPSYTSGYQSYDYWGQGTQVTVSS,low polyreactivity
19,QVQLVESGGGLVQAGGSLRLSCAASGSIFITYAMGWYRQAPGKERELVAAIRDSGDRTYYADSVKGRFTISRDKAKNTDYLQKNSLKPEDTAVYYCNARWQEPLKYDYWGQGTQVTVSS,low polyreactivity
20,QVQLVESGGGLVQAGGSLRLSCAASGSIFRSNTMGWYRQAPGKERELVASITRGGSTNYADSVKGRFTISRDNAKNTVYLQMNSLKPEDTAVYYCIARRTVRYYFSYGYWGQGTQVTVSS,high polyreactivity
